In patent US20180217132, “MEASUREMENT METHOD AND MEASUREMENT DEVICE” (KYOCERA CORPORATION, published 2018) one finds Kd data, which are given here for one molecule.

Broadly, the Kd is the constant that tells how readily two partners part at equilibrium.

For this series, the target named is Hemoglobin A0 (HbA0) (UniProt P69905;P68871 P69905:2-142,P68871:2-147). Briefly: SPR; Biacore T200, HBS-P + 1 mM MgCl2 pH 7.4; method of Kd not explicitly stated. The conditions noted are these: tags: none; denatured. Background: SPR reads the build-up and loss of mass on a sensor chip optically.
Sequence of Hemoglobin A0 (HbA0) (P69905 2-142, chain 1 of 2): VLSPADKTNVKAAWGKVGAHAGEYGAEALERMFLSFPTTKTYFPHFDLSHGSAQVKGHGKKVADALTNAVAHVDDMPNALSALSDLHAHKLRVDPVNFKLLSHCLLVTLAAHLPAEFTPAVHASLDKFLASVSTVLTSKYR
Sequence of Hemoglobin A0 (HbA0) (P68871 2-147, chain 2 of 2): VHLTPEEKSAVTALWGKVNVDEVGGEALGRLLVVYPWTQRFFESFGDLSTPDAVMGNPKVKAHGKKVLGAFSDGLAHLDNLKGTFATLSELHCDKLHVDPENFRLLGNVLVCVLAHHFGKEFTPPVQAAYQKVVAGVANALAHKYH

B1: RNA aptamer A (ssRNA)
RNA: GGGAUAGGAUCCACAUCUACGUAUUACGGCAUUAUUAGGACCAAUGCUGAGUACGGCGCACAGCUUUUUUCACUGCAGACUUGACGAAGCUUAAAAAAAAAAAAAAAAAA
modifications: 2'-F at A and U
As for B1, the dissociation constant (Kd) was 160 nM.
